Experimental data taken from article PMC10404625 (The Journal of Biological Chemistry, 2023).
Each block holds one binder with its values, some of them ahead of it. Ends that are not written are not given here.

Legend:
Assay in all cases: MST
[1] = molecular target: three Rpc53 N-ter mutant peptides
Tfc4 N-ter (1–580) = molecular target: T1, Tfc4 N-ter (1–580) (S. cerevisiae, UniProt P33339 1-580)
T1 sequence (looked up): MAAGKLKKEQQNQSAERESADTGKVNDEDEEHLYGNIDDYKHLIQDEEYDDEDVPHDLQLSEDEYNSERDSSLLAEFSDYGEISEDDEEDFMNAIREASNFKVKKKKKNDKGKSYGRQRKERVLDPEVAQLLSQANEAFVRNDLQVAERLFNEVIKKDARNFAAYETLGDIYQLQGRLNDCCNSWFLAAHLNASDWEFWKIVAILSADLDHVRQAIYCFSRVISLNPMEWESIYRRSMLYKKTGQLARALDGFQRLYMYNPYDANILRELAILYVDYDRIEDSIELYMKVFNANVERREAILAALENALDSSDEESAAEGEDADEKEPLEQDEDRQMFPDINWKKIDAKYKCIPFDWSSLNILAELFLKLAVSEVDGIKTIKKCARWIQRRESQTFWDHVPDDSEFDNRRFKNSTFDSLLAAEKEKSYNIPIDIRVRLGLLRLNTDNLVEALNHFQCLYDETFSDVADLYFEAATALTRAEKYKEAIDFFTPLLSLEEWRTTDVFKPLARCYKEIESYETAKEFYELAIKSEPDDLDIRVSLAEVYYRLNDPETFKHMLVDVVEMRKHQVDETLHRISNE

[2] = molecular target: T2, Rpc53/37 dimerization module (Rpc53 (274–422)/Rpc37 (71–181)) (S. cerevisiae, UniProt P25441 274-422; P36121 71-181)
T2 sequence (looked up) 1: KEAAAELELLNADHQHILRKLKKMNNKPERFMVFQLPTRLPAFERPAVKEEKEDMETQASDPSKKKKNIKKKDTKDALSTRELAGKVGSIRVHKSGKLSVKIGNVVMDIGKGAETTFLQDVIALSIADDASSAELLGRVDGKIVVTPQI
T2 sequence (looked up) 2: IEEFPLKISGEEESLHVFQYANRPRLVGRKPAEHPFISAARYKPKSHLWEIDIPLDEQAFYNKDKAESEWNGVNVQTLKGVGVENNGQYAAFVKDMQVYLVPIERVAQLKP

Rpc25/17 heterodimer = molecular target: T3, Rpc25/17 heterodimer (S. cerevisiae, UniProt P35718 1-212; P47076 1-161)
T3 sequence (looked up) 1: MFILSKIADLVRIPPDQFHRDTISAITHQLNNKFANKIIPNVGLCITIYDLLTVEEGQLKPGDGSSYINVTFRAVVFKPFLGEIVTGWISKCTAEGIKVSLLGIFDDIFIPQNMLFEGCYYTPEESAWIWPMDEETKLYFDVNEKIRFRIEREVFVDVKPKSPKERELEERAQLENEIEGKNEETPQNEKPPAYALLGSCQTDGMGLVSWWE
T3 sequence (looked up) 2: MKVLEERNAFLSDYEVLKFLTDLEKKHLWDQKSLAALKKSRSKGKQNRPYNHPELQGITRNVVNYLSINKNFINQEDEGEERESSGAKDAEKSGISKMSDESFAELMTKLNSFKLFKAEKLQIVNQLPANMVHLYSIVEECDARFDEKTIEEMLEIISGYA

full-length Rpc37 = molecular target: T4, full-length Rpc37 (S. cerevisiae, UniProt P36121 1-282)
T4 sequence (looked up): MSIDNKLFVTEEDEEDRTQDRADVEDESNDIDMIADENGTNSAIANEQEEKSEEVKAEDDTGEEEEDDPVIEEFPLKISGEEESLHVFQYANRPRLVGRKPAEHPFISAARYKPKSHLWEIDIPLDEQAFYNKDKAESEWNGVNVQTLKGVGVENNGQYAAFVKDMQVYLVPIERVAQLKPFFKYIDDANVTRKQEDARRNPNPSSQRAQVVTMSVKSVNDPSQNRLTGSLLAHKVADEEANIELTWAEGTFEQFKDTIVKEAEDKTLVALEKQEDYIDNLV

Kd [1]: 40 to 100 nM
B1: Tfc4 N-ter (1–580) (domain or fragment)
chain: T1 sequence (looked up)

Kd (Tfc4 N-ter (1–580)): 5.6 ± 1.7 nM
Kd [2]: 1620 ± 650 nM
Kd (Rpc25/17 heterodimer): 230 ± 170 nM
Kd (full-length Rpc37): 8.2 ± 1.7 nM
B2: Rpc53 N-ter (1–57) fragment (domain or fragment, S. cerevisiae, UniProt P25441 1-57, looked up)
chain: MSSNKGNGRLPSLKDSSSNGGGSAKPSLKFKPKAVARKSKEEREAAASKVKLEEESK
modifications: also: Alexa Fluor 647 via NHS ester, position not given here
